Experimental data as given in paper PMC2723119, “A new cold-adapted β-D-galactosidase from the Antarctic Arthrobacter sp. 32c – gene cloning, overexpression, purification and properties” (BMC Microbiology, 2009).

Substrate: O=[N+]([O-])c1ccccc1O[C@@H]1O[C@H](CO)[C@H](O)[C@H](O)[C@H]1O
Assay: purified protein
Assay type: biochemical, Arthrobacter sp.
Conditions: 50 °C (optimum; also at 10, 20, 30, 40, 55 °C), pH 6.5, 0.02 M potassium phosphate

B1: Arthrobacter sp. 32c β-D-galactosidase (Arthrobacter sp.) (protein)
chain: MGKRFPSGWFSPRVHPPRRQRSPMTNQATPGTASVWNNIEGIGFGGDYNPEQWPVSVRLEDLELMQEAGVNFLSVGIFSWALLEPAEGQYDFGWLDDVMDNLHGIGVKVALATATAAPPAWLVRKHPEILPVTADGTTLGPGSRRHYTPSSAVYRKYAAGITRVLAERYKDHPALALWHVDNELGCHVSEFYGEEDAAAFRLWLERRYGTIDALNAAWGTAFWSQHYGSFEEILPPGVAPSTLNPGQQLDFQRFNSWALMDYYRSLVAVLREVTPAVPCTTNLMASSATKSMDYFSWAKDLDVIANDHYLVAADPERHIELAFSADLTRGIAGGDPWILMEHSTSAVNWQPRNQPKMPGEMLRNSLAHVARGADAVMFFQWRQSFAGSEKFHSAMVPHGGRDTRVWREVVDLGAALQLLAPVRGSRVESRAAIVFDYEAWWASEIDSKPSIDVRYLDLLRAFHRSLFLRGVSVDMVHPSASLDGYDLVLVCTLYSVTDEAAANIAAAAAGGATVLVSYFSGITDEKDHVRLGGYPGAFRELLGVRVEEFHPLLAGSQLKLSDGTVSSIWSEHVHLDGAEAFQTFTGYPLEGVPSLTRRAVGTGAAWYLATFPDRDGIESLVDRLLAESGVSPVAEADAGVELTRRRSADGGSFLFAINHTRAAASVRASGTDVLSGERFTGTVEAGSVAVIAED
notes: full length, recombinant, no tag apparent (own stop codon in reverse primer); starts MGKRFPS (from primer)
Km: 2620 ± 210 µM | kcat: 212.4 ± 1.67 s⁻¹ | kcat/Km: 81100 ± 7760 M⁻¹ s⁻¹
